The data set concerns the molecule itself. As to the kind of experiment: Blue-Native-PAGE, oligomeric conformation (self-association of identical chains). The source says:
Comparison of the native molecular weight (oligomeric conformation) between single purified zearalenone-cleaving polypeptides was done via Blue-Native-PAGE. Dilutions of the elutes were supplied with not denaturating loading dye (e.g. 2× loading dye: 0.126 M tris(hydroxymethyl)aminomethan/hydrochloric acid pH 6.8, 20.0% glycerol, 4.0% Coomassie Blue G-250) and separated on a 4-15% polyacrylamid gel under native conditions (e.g. Mini-PROTEAN® Tetra Cell System, 1658004EDU+4-15% Mini-PROTEAN® TGX™ Precast Protein Gels, 4561083EDU, Bio-Rad Laboratories GmbH) (5× Anode Buffer: 0.125 M Tris(hydroxymethyl)aminomethane, 0.960 M Glycine, 1× Kathode Buffer: Anode Buffer+0.02% Coomassie Blue G250; 200 V, 40 minutes). The peptide bands were visualized by Coomassie staining. The oligomeric state of selected zearalenone-cleaving polypeptides was determined by size exclusion chromatography, SEC-MALS or X-Ray crystallography. Homo-dimers (e.g. SEQ ID NO. 1) migrated faster across the BN-PAGE gel matrix, while homo-tetramers (e.g. SEQ ID NO. 2-35) were retained in the gel matrix to a higher extent. The oligomeric conformation of the zearalenone-cleaving polypeptides was determined relatively to the migration of homo-dimeric and homo-tetrameric peptides.

B1: parent alpha/beta hydrolase of SEQ ID NO: 1 (enzyme)
chain: MTDQSPETRDIFVPHAFEEQQVDLGEVVMNYVEAGSADHPALLLLPEQTGSWWSYEPVIGLLAESFHVFAVDIRGQGRSTWTPKRYSLDNFGNDLVRFISLVVKRPVIVSGNSSGGVLAAWLSAYAMPGQIRAALCEDTPFFASELVPAHGHSVRQAAGPAFELYRNFLGDQWSVADWDGFAAAAKASPSKIMSLFPSSDEPPQNLKEYDPEWARAFFEGTVALHCPHDLMLSQVKTPILITHHARAVDPHSGDLLGALSDFQAERAQAIIESAGVPVEYASFPDALHMMHQFEPERFAEVLTSWVARLPADTPGAHHHHHH
notes: homo-dimer; also called wildtype parent alpha/beta hydrolase; zearalenone-cleaving polypeptide
With B1, the binding result was “binds”.

The record behind these values is US20230383269A1 (DSM AUSTRIA, published 2023).
